Results: patent US20030143647A1 (UNIVERSITY OF PITTSBURGH OF THE COMMONWEALTH SYSTEM OF …, published 2003)

B1: Cyclin B1 peptide from the tumor, SEQ ID NO: 5 (AGYLMELCMA) (peptide)
peptide: AGYLMELCMA
notes: Synthesized by F-moc chemistry, with leucine at positions 4 and 7
B2: Cyclin B1 peptide from the tumor, SEQ ID NO: 6 (AGYLMELCFA) (peptide)
peptide: AGYLMELCFA
notes: as for B1
B3: Human cyclin B1 peptide from the database, SEQ ID NO: 8 (AKYLMELTML) (peptide)
peptide: AKYLMELTML
notes: also called HeLa-derived cyclin B1 peptide
B4: Human cyclin B1 peptide from the database, SEQ ID NO: 7 (AKYLMELTM) (peptide)
peptide: AKYLMELTM
notes: as for B3
B5: Cyclin B1 peptide from the tumor, SEQ ID NO: 1 (AGYLMELCV) (peptide)
peptide: AGYLMELCV
notes: Synthesized by F-moc chemistry, with leucine at positions 4 and 7; also called P1
B6: Cyclin B1 peptide from the tumor, SEQ ID NO: 3 (AGYLMELCF) (peptide)
peptide: AGYLMELCF
notes: Synthesized by F-moc chemistry, with leucine at positions 4 and 7; also called P3
B7: Cyclin B1 peptide from the tumor, SEQ ID NO: 2 (AGYLMELCM) (peptide)
peptide: AGYLMELCM
notes: Synthesized by F-moc chemistry, with leucine at positions 4 and 7; also called P2

The binders below were run against T1, HLA-A2.1 molecules on T2 cells (human) (assay: HLA class I stabilization assay on T2 cells, MA2.1 staining, flow cytometry).
T1 construct: MHC class I molecule on the surface of T2 cells; also called HLA-A*0201
Procedure: HLA Class I stabilization assays. Peptide-induced stabilization of HLA-A2.1 molecules on T2 cells was done as previously described (Zeh et al., Hum. Immunol., 39(2), 79-86 (1994)). 2×10⁵ T2 cells were incubated with […] of the indicated synthetic peptides in […] human B2m (Calbiochem, La Jolla, Calif.) for 18-20 hours at room temperature. The cells were then stained with the HLA-A2.1-specific antibody, MA2.1, for 45 minutes, washed with FACS Buffer (PBS, 5% FBS, and 0.01% sodium azide), and stained with a secondary FITC-conjugated anti-IgG antibody (Biosource International, Camarillo, Calif.). The cells were fixed in 4% formaldehyde prior to flow cytometry analysis. The negative control consisted of T2 cells without peptide. The positive control consisted of T2 cells loaded with the Flu matrix peptide, […]. Flow cytometric analysis was done using a FACScan flow cytometer (Becton-Dickinson). Experimental results are depicted as X-Fold increase=(Mean Fluorescent Intensity of T2 cells loaded with peptide/Mean Fluorescent Intensity of T2 cells with no peptide).

Row | Binder | HLA-A2.1 Binding (X-Fold increase of MFI)
1 | B1 | 1.58 fold
2 | B2 | 2.08 fold
3 | B3 | 2.25 fold
4 | B4 | 2.28 fold
5 | B5 | 1.6 fold
6 | B6 | 1.42 fold
7 | AGYLMELCC (also called P4) [Cyclin B1 peptide from the tumor, SEQ ID NO: 4 (AGYLMELCC)] | 1.61 fold
8 | B7 | 1.48 fold
